# According to IntAct's records for PubMed 15504911:
# B1: ADP-ribosylation factor 1 (Saccharomyces cerevisiae), P11076 (parent)
# chain: MGLFASKLFSNLFGNKEMRILMVGLDGAGKTTVLYKLKLGEVITTIPTIGFNVETVQYKNISFTVWDVGGQDRIRSLWRHYYRNTEGVIFVVDSNDRSRIGEAREVMQRMLNEDELRNAAWLVFANKQDLPEAMSAAEITEKLGLHSIRNRPWFIQATCATSGEGLYEGLEWLSNSLKNST
# partner: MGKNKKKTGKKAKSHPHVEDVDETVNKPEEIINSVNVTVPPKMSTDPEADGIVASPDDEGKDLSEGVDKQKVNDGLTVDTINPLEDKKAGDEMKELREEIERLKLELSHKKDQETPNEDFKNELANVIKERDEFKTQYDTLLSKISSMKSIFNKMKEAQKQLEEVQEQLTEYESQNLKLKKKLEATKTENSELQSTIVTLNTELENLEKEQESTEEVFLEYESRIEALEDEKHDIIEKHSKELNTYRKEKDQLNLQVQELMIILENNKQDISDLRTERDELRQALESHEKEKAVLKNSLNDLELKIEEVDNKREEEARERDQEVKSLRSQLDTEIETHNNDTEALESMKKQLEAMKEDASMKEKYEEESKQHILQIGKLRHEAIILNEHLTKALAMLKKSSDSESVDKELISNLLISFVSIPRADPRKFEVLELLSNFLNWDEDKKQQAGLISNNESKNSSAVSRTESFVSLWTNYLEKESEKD
# B2: GRIP domain-containing protein RUD3 (Saccharomyces cerevisiae), Q12234 (parent)
# chain: B1 partner
# partner: B1 chain
# Variants of: B1
# Settings: with rud3_yeast RUD3, Q12234
row,effect of a mutation on the interaction,Variant
1,decreasing interaction,T32N

# Variants of: B2
# Settings: with arf1_yeast ARF1, P11076
row,effect of a mutation on the interaction,Variant
1,decreasing interaction,L410A
